B1: EHEE_rd4_0086 (parent)
chain: EIHIRTNGEEQARKVYKMLAKRNYDVKIEQHNGQWVVTAS

Variants of: B1
Assay: folding stability dG (cDNA display proteolysis); higher = more stable
Conditions: PBS, room temperature

Folding stability dG [kcal/mol], by site and new letter:
E9: L 2.44; M 1.75; N 0.702; P 1.92; Q 1.52; R 1.77; S 1.14; T 0.873; V 1.76; W 2.41; Y 2.52
E10: A 2.22; D 1.74; F 1.73; G 1.64; H 1.58; I 1.84; K 2.15; L 1.98; M 1.89; N 1.72; P 1.37; Q 1.81; R 2.17; S 1.93; T 1.78; V 1.81; W 2.06; Y 1.81
Q11: A 1.89; D 1.67; E 2.1; F 2.05; G 1.02; H 1.96; I 1.84; K 1.4; L 1.89; M 1.95; N 1.35; P 0.372; R 1.51; S 1.55; T 1.59; V 1.61; W 2.1; Y 2
A12: C 2.51; F -0.019; G 0.134; I 0.115; K -0.265; L 0.213; M 0.486; Q -0.947; R -0.218; S 0.335; T 0.108; V -0.114; W 0.477; Y -0.25
R13: A 1.03; C 2.74; D 0.502; E 1.04; F 1.5; G 0.376; H 1.32; I 1.67; K 1.92; L 1.89; M 1.79; N 1.36; Q 1.47; S 0.759; T 1.18; V 1.27; W 2.33; Y 1.85
K14: A 1.86; D 1.21; E 1.68; F 1.89; G 0.786; H 1.53; I 1.82; L 1.91; M 1.87; N 1.29; Q 1.8; R 2.12; S 1.34; T 1.32; V 1.42; W 2.35; Y 2.02
V15: A 1.12; C 2.6; D -0.861; E -0.159; F 1.93; H 0.525; I 2.49; K 0.551; L 2.35; M 1.62; N -0.279; Q 0.153; R 0.424; S -0.033; T 0.624; W 2.43; Y 1.97
Y16: A 2.76; E 0.776; F 1.93; G 1.88; H 1.03; I 0.973; K 1.07; L 1.55; M 2.15; N -0.095; Q 1.38; R 1.15; S 1.5; T 0.377; V 1.23; W 1.38
K17: A 2.25; C 3.19; D 2.06; E 2.37; F 1.86; G 1.33; H 1.83; I 2.03; L 2.08; M 2.15; N 2.07; P -0.583; Q 2.1; R 2.02; S 1.77; T 1.91; V 1.91; W 2.11; Y 1.99
M18: A 1.84; D 1.08; E 1.67; F 2.25; G 0.727; H 1.54; I 1.81; K 1.37; L 1.82; N 1.14; Q 1.5; R 1.25; S 1.35; T 1.12; V 1.48; W 2.61; Y 2.37
L19: A -0.32; F 1.72; H -0.775; I 0.108; M 1.27; V -0.352; W 1.02; Y 1.35
A20: D 0.486; E 1.52; F 1.58; G 0.826; H 1.36; I 2.17; K 2.43; L 2.51; M 2.21; N 0.982; Q 2.16; R 2.14; S 1.78; T 1.75; V 2.18; W 1.46; Y 1.55
K21: A 2.4; C 2.71; D 2.13; E 2; F 1.7; G 1.82; H 1.69; I 1.82; L 2.06; M 2.15; N 1.77; P -0.238; Q 2.1; R 1.95; S 2.09; T 1.67; V 1.63; W 1.61; Y 1.61
R22: A 1.84; D 1.08; E 1.29; F 2.04; G 1.16; H 1.86; I 1.31; K 1.85; L 2.45; M 2.32; N 1.45; P -0.563; Q 1.76; S 1.37; T 1.16; V 1.01; W 2.29; Y 2.05
N23: A 1.69; C 2.9; D 1.33; E 1.12; F 2.79; G 3.46; H 2.35; I 0.912; K 1.68; L 1.74; M 1.89; P 0.533; Q 1.67; R 1.68; S 1.55; T 0.87; V 0.904; W 2.36; Y 2.86
Y24: A 1.08; D 0.514; E 0.458; F 1.93; G 0.656; H 1.18; I 1.42; K 1.25; L 1.69; M 1.71; N 0.737; P 0.856; Q 0.902; R 1.3; S 0.914; T 0.886; V 1.29; W 2
D25: A 1.96; E 1.91; F 2.14; G 1.22; H 2.15; I 2.34; K 2.36; L 2.21; M 2.21; N 2.27; P 1.08; Q 2.23; R 2.25; S 1.99; T 2.25; V 2.31; W 1.89; Y 2.09
V26: A 1.1; F -0.182; G -0.027; I 1.09; L 0.829; M 0.338; P 1.02; R -0.177; S -0.013; T 0.533; W 0.204; Y -0.299
K27: A 1.26; D 0.311; E 0.722; F 1.33; G 0.682; H 1.66; I 1.45; L 1.12; M 1.32; N 1.16; Q 1.44; R 1.95; S 1.5; T 1.68; V 1.45; W 1.52; Y 1.45
I28: A 0.154; F 0.516; K -0.269; L 1.56; M 1.69; Q -0.461; R -0.747; S -0.437; T -0.114; V 1.29; W 0.131; Y 0.682
E29: A 1.8; D 1.26; F 2.44; G 1.48; H 1.78; I 1.97; K 1.6; L 1.75; M 1.93; N 1.57; Q 1.82

Reference: the MegaScale stability set (Tsuboyama et al. 2023)
